Molecular target: T1, GST alone (UniProt P08515 1-218 = GST)
T1 construct: Control protein in the pull-downs; also called purified GST; glutathione-S-transferase
Assay: pull-down of purified His6-tagged fragment with GST fusions, Western blot with anti-Xpress antibody
Method: A His₆-tagged recombinant protein comprising a C-terminal region of SYNCRIP (amino acids 401-561) was expressed in E. coli using pREST plasmid (Invitrogen). The recombinant protein was recovered from inclusion bodies by using a denaturing solution (6 M guanidine-HCl, 10 mM Tris-HCl (pH 8.0), 0.5 M NaCl, 1 mM β-mercapto-ethanol) and purified with ProBond resin. The denatured recombinant protein was refolded by dialysis against 10 mM Tris-HCl (pH 8.0), 10 mM β-mercaptoethanol, 0.1 M NaCl and 1 mM EDTA, with gradual decrease of urea concentration from 6 M to 0.001 M. The dialysate was centrifuged at 12,000 rpm at 4° C. for 20 min to remove the malfolded part and insoluble matter. After aliquots were incubated with various GST-fusion proteins with one of the Syt-II C2 domains, bound proteins were recovered and subjected to Western blotting using anti-Xpress antibody (Invitrogen).

T1 sequence (P08515 whole entry): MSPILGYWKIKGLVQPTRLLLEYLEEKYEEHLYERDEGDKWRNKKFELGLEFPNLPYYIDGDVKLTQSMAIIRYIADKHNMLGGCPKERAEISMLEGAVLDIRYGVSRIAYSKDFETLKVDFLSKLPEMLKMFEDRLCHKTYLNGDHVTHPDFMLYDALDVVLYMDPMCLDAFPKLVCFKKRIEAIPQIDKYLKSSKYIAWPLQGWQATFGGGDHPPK

B1: His6-tagged recombinant protein comprising a C-terminal region of SYNCRIP (amino acids 401-561) (other, not shown: small tags and cut ends)
chain: IEIVFAKPPDQKRKERKAQRQAAKNQMYDDYYYYGPPHMPPPTRGRGRGGRGGYGYPPDYYGYEDYYDYYGYDYHNYRGGYEDPYYGYEDFQVGARGRGGRGARGAAPSRGRGAAPPRGRAGYSQRGGPGSARGVRGARGGAQQQRGRGGKGVEAGPDLLQ
notes: also called C-terminal region of SYBCRIP
  binding result: no binding

Source: US20020106724A1 (RIKEN, published 2002)
